Test results: patent US20220267796A1

Tests used:
[1] = target: AAV8 (recombinant adeno-associated virus serotype 8 particles, capsid of VP1, VP2 and VP3 of AAV8) (adeno-associated virus 8 (AAV8)); experiment: affinity chromatography on AAVX column, +2-8° C., ELT-buffer pH 7.0; AAV8 ELISA of fraction
[2] = target: AAV9 (recombinant adeno-associated virus serotype 9 particles, capsid of VP1, VP2 and VP3 of AAV9) (adeno-associated virus 9 (AAV9)); experiment: batch adsorption, 0.2 g resin + 9.6 g LOAD, 15 to 16 h at +2° C. to +8° C.; AAV9 ELISA of supernatant
[3] = target: AAV8 (recombinant adeno-associated virus serotype 8 particles, capsid of VP1, VP2 and VP3 of AAV8) (adeno-associated virus 8 (AAV8)); experiment: affinity chromatography on AAVX column, +2-8° C., 125 mM NaCl/50 mM TrisHCl pH 8.5; AAV8 ELISA of fraction
[4] = target: AAV9 (recombinant adeno-associated virus serotype 9 particles, capsid of VP1, VP2 and VP3 of AAV9) (adeno-associated virus 9 (AAV9)); experiment: affinity chromatography on AAVX column, +22-28° C., 125 mM NaCl/50 mM TrisHCl pH 8.5; AAV9 ELISA of fraction
[5] = target: AAV8 (recombinant adeno-associated virus serotype 8 particles, capsid of VP1, VP2 and VP3 of AAV8) (adeno-associated virus 8 (AAV8)); experiment: affinity chromatography on AAVX column, +18-26° C., 125 mM NaCl/50 mM TrisHCl pH 8.5; AAV8 ELISA of fraction
[6] = target: AAV8 (recombinant adeno-associated virus serotype 8 particles, capsid of VP1, VP2 and VP3 of AAV8) (adeno-associated virus 8 (AAV8)); experiment: affinity chromatography on AAVX column, +2-8° C., 100 mM NaAcetate/0.1% Tween 80 pH 6.0; AAV8 ELISA of fraction
[7] = target: AAV9 (recombinant adeno-associated virus serotype 9 particles, capsid of VP1, VP2 and VP3 of AAV9) (adeno-associated virus 9 (AAV9)); experiment: affinity chromatography on AAVX column, +22-28° C., 100 mM NaAcetate/0.1% Tween 80 pH 6.0; AAV9 ELISA of fraction
[8] = target: AAV8 (recombinant adeno-associated virus serotype 8 particles, capsid of VP1, VP2 and VP3 of AAV8) (adeno-associated virus 8 (AAV8)); experiment: affinity chromatography on AAVX column, +18-26° C., 100 mM NaAcetate/0.1% Tween 80 pH 6.0; AAV8 ELISA of fraction
[9] = target: AAV9 (recombinant adeno-associated virus serotype 9 particles, capsid of VP1, VP2 and VP3 of AAV9) (adeno-associated virus 9 (AAV9)); experiment: affinity chromatography on AAVX column, gradient 1 mM to 20 mM HCl/200 mM NaCl at +2-8° C.; AAV9 ELISA of fraction
[10] = target: AAV9 (recombinant adeno-associated virus serotype 9 particles, capsid of VP1, VP2 and VP3 of AAV9) (adeno-associated virus 9 (AAV9)); experiment: affinity chromatography on AAVX column, strip at +2-8° C. with 100 mM Glycine, 200 mM NaCl pH 2.0; AAV9 ELISA of fraction
[11] = target: AAV9 (recombinant adeno-associated virus serotype 9 particles, capsid of VP1, VP2 and VP3 of AAV9) (adeno-associated virus 9 (AAV9)); experiment: affinity chromatography on AAVX column, elution at +2-8° C. with 125 mM NaCl/50 mM TrisHCl pH 8.5; AAV9 ELISA of fraction
[12] = target: AAV8 (recombinant adeno-associated virus serotype 8 particles, capsid of VP1, VP2 and VP3 of AAV8) (adeno-associated virus 8 (AAV8)); experiment: affinity chromatography on AAVX column, gradient 1 mM to 20 mM HCl/200 mM NaCl at +2-8° C.; AAV8 ELISA of pooled fraction
[13] = target: AAV9 (recombinant adeno-associated virus serotype 9 particles, capsid of VP1, VP2 and VP3 of AAV9) (adeno-associated virus 9 (AAV9)); experiment: affinity chromatography on AAVX column, elution at +2-8° C. with 100 mM NaAcetate/0.1% Tween 80 pH 6.0; AAV9 ELISA of fraction
[14] = target: AAV9 (recombinant adeno-associated virus serotype 9 particles, capsid of VP1, VP2 and VP3 of AAV9) (adeno-associated virus 9 (AAV9)); experiment: affinity chromatography on AAVX column, standard elution at +18-26° C. with 100 mM Glycine, 200 mM NaCl pH 2.7; AAV9 ELISA of fraction
[15] = target: AAV9 (recombinant adeno-associated virus serotype 9 particles, capsid of VP1, VP2 and VP3 of AAV9) (adeno-associated virus 9 (AAV9)); experiment: affinity chromatography on AAVX column, +22-28° C., 125 mM NaCl/50 mM TrisHCl pH 8.5; AAV9 ELISA of fraction (load 2.86 x 10^11 cp/ml)
[16] = target: AAV8 (recombinant adeno-associated virus serotype 8 particles, capsid of VP1, VP2 and VP3 of AAV8) (adeno-associated virus 8 (AAV8)); experiment: affinity chromatography on AAVX column, +18-26° C., 125 mM NaCl/50 mM TrisHCl pH 8.5; AAV8 ELISA of fraction (load 23.2 x 10^11 cp/ml)
[17] = target: AAV9 (recombinant adeno-associated virus serotype 9 particles, capsid of VP1, VP2 and VP3 of AAV9) (adeno-associated virus 9 (AAV9)); experiment: batch adsorption, 0.2 g resin + 9.6 g LOAD, 15 to 16 h at +18° C. to +30° C., 125 mM NaCl/50 mM Tris HCl pH 8.5; AAV9 ELISA of supernatant
[18] = target: AAV9 (recombinant adeno-associated virus serotype 9 particles, capsid of VP1, VP2 and VP3 of AAV9) (adeno-associated virus 9 (AAV9)); experiment: batch adsorption at room temperature, then 30 min in 1 ml cold 125 mM NaCl/50 mM Tris HCl pH 8.5 at +2° C. to +8° C.; AAV9 ELISA of supernatant

With “POROS CaptureSelect AAVX Affinity Resin (Cat. No. 36742; Thermo Fisher), immobilised affinity ligand” the AAV8 Antigen cp/ml in low temperature eluate 2 [1] was under 1.59e+09 cp/ml, the % AAV9 Antigen in supernatant (not bound) after incubation at low temperature [2] was 63.7% and the AAV8 Antigen cp/ml in low temperature eluate 3 [3] was under 1.59e+09 cp/ml. The AAV9 Antigen [%] of load found in flow-through/wash 1 (not bound) [4] was 1.76%, the AAV9 Antigen [%] of load found in wash 3 [4] was 0.04% and the AAV9 Antigen cp/ml in wash 3 [4] was under 3.8e+09 cp/ml. It also gave an AAV8 Antigen cp/ml in wash 3 [5] of under 1.59e+09 cp/ml, an AAV8 Antigen cp/ml in low temperature eluate 1 [6] of under 1.59e+09 cp/ml and an AAV9 Antigen [%] of load found in wash 2 [7] of 0.04%. The AAV9 Antigen cp/ml in wash 2 [7] was under 3.8e+09 cp/ml, the AAV9 Antigen cp/ml in wash 4 [7] was under 3.8e+09 cp/ml and the AAV8 Antigen cp/ml in wash 2 [8] was under 1.59e+09 cp/ml. For the same substance, the AAV8 Antigen cp/ml in wash 4 [8] was under 1.59e+09 cp/ml, the AAV9 Antigen [%] of load released by acidic gradient [9] was 5.42% and the AAV9 Antigen [%] of load released only by acidic strip [10] was 16.9%. It also gave an AAV9 Antigen [%] of load released in low temperature eluate [11] of 44.8%, an AAV9 Antigen [%] of load released in low temperature eluate 3 [11] of 11.6% and an AAV8 Antigen [%] of load released by acidic gradient [12] of 75.8%. It also gave an AAV9 Antigen [%] of load released in low temperature eluate 1 [13] of 61.2%, an AAV9 Antigen [%] of load released by acidic elution [14] of 81.5% and an AAV9 Antigen cp/ml in flow-through/wash 1 (not bound) [15] of under 3.8e+09 cp/ml. It also gave an AAV8 Antigen cp/ml in flow-through/wash 1 (not bound) [16] of under 1.59e+09 cp/ml, a % AAV9 Antigen in supernatant (not bound) after incubation at room temperature [17] of 6.2% and a % AAV9 Antigen in eluate (released at low temperature) [18] of 36.7%.
